Assay results from PMC5016258.

Key:
[1] = molecular target: Angiotensin-(1-7) Mas receptor fused to enhanced yellow fluorescent protein (UniProt P04201); test: radioligand binding
[2] = molecular target: B2R-MasR heteromer on cells co-transfected with B2R-CFP and MasR-YFP (UniProt P30411); test: radioligand binding
Sequence of UniProt P30411 (P30411 whole entry, chain 1 of 2): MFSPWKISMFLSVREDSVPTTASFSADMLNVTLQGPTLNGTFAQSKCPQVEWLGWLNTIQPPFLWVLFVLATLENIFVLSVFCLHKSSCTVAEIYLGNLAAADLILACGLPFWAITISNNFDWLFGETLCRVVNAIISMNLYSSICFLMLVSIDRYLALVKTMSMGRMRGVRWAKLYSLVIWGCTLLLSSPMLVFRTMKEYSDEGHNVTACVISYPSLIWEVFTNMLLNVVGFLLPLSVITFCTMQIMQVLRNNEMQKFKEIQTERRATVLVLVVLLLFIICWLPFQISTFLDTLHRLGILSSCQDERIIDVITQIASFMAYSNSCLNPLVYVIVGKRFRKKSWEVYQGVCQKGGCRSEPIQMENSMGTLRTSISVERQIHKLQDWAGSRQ
Sequence of UniProt P30411 (P04201 whole entry, chain 2 of 2, further chain): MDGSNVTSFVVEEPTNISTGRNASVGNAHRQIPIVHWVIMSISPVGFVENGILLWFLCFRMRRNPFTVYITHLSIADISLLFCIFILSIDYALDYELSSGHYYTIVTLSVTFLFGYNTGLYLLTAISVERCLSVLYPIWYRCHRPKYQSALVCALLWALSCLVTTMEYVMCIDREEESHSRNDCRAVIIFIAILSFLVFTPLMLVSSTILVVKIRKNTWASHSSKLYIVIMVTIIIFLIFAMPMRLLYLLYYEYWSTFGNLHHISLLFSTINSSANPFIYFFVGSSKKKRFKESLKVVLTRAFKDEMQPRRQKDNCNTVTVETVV

Sequence of UniProt P04201 (P04201 whole entry, the tested form may be a part): as the sequence (P04201 whole entry, chain 2 of 2, further chain) above

**Q.** What does the source list for Angiotensin-(1-7) (peptide)?
**A.** Kd [1]: 1.15 nM; Kd [2]: 0.139 nM
